{"source": "patent US20020110883", "proteins": {"B1": {"name": "Kip3A 353 protein (protein)", "chain": "MAVEDSTLQVVVRVRPPTPRELDSQRRPVVQVVDERVLVFNPEEPDGGFPGLKWGGTHDGPKKKGKDLTFVFDRVFGEAATQQDVFQHTTHSVLDSFLQGYNCSVFAYGATGAGKTHTMLGREGDPGIMYLTTVELYRRLEARQQEKHFEVLISYQEVYNEQIHDLLEPKGPLAIREDPDKGVVVQGLSFHQPASAEQLLEILTRGNRNRTQHPTDANATSSRSHAIFQIFVKQQDRVPGLTQAVQVAKMSLIDLAGSERASSTHAKGERLREGANINRSLLALINVLNALADAKGRKTHVPYRDSKLTRLLKDSLGGNCRTVMIAAISPSSLTYEDTYNTLKYADRAKEIRLKGNSKLEGKPIPNPLLGLDSTRTGHHHHHH"}}, "biological_target": "microtubules", "data": [{"protein": "B1", "values": [{"measurement": "Km for microtubule stimulation (coupled PK/LDH ATPase assay, Michaelis-Menten fit)", "value": "Km for microtubule stimulation of 4.6 ug/ml"}, {"measurement": "Vmax of microtubule-stimulated ATPase (coupled PK/LDH ATPase assay, Michaelis-Menten fit)", "value": "Vmax 0.85 uM ADP/s"}, {"measurement": "kcat of microtubule-stimulated ATPase (from Vmax)", "value": "corresponds to a kcat value of 15s^-"}]}]}
